# B1: Dihydrolipoyl dehydrogenase, mitochondrial (Homo sapiens), P09622 (parent)
# chain: MQSWSRVYCSLAKRGHFNRISHGLQGLSAVPLRTYADQPIDADVTVIGSGPGGYVAAIKAAQLGFKTVCIEKNETLGGTCLNVGCIPSKALLNNSHYYHMAHGKDFASRGIEMSEVRLNLDKMMEQKSTAVKALTGGIAHLFKQNKVVHVNGYGKITGKNQVTATKADGGTQVIDTKNILIATGSEVTPFPGITIDEDTIVSSTGALSLKKVPEKMVVIGAGVIGVELGSVWQRLGADVTAVEFLGHVGGVGIDMEISKNFQRILQKQGFKFKLNTKVTGATKKSDGKIDVSIEAASGGKAEVITCDVLLVCIGRRPFTKNLGLEELGIELDPRGRIPVNTRFQTKIPNIYAIGDVVAGPMLAHKAEDEGIICVEGMAGGAVHIDYNCVPSVIYTHPEVAWVGKSEEQLKEEGIEYKVGKFPFAANSRAKTNADTDGMVKILGQKSTDRVLGAHILGPGAGEMVNEAALALEYGASCEDIARVCHAHPTLSEAFREANLAASFGKSINF
# partner: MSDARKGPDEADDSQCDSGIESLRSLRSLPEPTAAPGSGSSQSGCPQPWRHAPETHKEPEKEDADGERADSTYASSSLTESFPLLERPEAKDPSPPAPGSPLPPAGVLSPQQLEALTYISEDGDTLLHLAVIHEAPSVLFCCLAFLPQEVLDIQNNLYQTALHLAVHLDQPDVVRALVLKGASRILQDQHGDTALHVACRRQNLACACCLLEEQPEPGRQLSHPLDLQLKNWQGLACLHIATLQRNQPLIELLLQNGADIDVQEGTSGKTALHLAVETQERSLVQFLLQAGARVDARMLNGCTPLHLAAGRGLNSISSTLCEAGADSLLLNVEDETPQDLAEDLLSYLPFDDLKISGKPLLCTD
# B2: Serine/threonine-protein kinase PINK1, mitochondrial (Homo sapiens), Q9BXM7 (parent)
# chain: MAVRQALGRGLQLGRALLLRFTGKPGRAYGLGRPGPAAGCVRGERPGWAAGPGAEPRRVGLGLPNRLRFFRQSVAGLAARLQRQFVVRAWGCAGPCGRAVFLAFGLGLGLIEEKQAESRRAVSACQEIQAIFTQKSKPGPDPLDTRRLQGFRLEEYLIGQSIGKGCSAAVYEATMPTLPQNLEVTKSTGLLPGRGPGTSAPGEGQERAPGAPAFPLAIKMMWNISAGSSSEAILNTMSQELVPASRVALAGEYGAVTYRKSKRGPKQLAPHPNIIRVLRAFTSSVPLLPGALVDYPDVLPSRLHPEGLGHGRTLFLVMKNYPCTLRQYLCVNTPSPRLAAMMLLQLLEGVDHLVQQGIAHRDLKSDNILVELDPDGCPWLVIADFGCCLADESIGLQLPFSSWYVDRGGNGCLMAPEVSTARPGPRAVIDYSKADAWAVGAIAYEIFGLVNPFYGQGKAHLESRSYQEAQLPALPESVPPDVRQLVRALLQREASKRPSARVAANVLHLSLWGEHILALKNLKLDKMVGWLLQQSAATLLANRLTEKCCVETKMKMLFLANLECETLCQAALLLCSWRAAL
# partner: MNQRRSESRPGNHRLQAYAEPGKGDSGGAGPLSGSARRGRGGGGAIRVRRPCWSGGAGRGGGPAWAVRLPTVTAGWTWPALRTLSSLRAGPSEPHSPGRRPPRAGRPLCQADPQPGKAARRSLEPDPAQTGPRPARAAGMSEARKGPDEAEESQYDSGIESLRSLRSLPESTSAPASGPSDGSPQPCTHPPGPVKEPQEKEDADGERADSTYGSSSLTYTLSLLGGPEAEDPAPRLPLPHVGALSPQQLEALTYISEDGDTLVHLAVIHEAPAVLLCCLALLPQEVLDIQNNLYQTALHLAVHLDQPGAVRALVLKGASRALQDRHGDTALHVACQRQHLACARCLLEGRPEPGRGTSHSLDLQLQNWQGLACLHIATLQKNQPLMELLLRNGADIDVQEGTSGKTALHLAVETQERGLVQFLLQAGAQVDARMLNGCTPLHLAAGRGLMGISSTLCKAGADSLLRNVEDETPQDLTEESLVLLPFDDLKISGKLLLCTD
# B3: Peroxiredoxin-5, mitochondrial (Homo sapiens), P30044 (parent)
# chain: MGLAGVCALRRSAGYILVGGAGGQSAAAAARRYSEGEWASGGVRSFSRAAAAMAPIKVGDAIPAVEVFEGEPGNKVNLAELFKGKKGVLFGVPGAFTPGCSKTHLPGFVEQAEALKAKGVQVVACLSVNDAFVTGEWGRAHKAEGKVRLLADPTGAFGKETDLLLDDSLVSIFGNRRLKRFSMVVQDGIVKALNVEPDGTGLTCSLAPNIISQL
# Variants of: B1
# Settings: with ikbe_mouse Nfkbie
row,effect of a mutation on the interaction,Variant
1,disrupting interaction strength,MQSWSRVYCSLAKRGHFNRISHGLQGLSAVPLRTYADQPIDADVTVIGSGPGGYVAAIKAAQLGFKTVCIEKNETLGGTCLNVGCIPSKALLNNSHYYHMAHGKDFASRGIEMSEVRLNLDKMMEQKSTAVKALTGGIAHLFKQNKVVHVNGYGKITGKNQVTATKADGGTQVIDTKNILIATGSEVTPFPGITIDEDTIVSSTGALSLKKVPEKMVVIGAGVIGVELGSVWQRLGADVTAVEFLGHVGGVGIDMEISKNFQRILQKQGFKFKLNTKVTGATKKSDGKIDVSIEAASGGKAEVITCDVLLVCIGRRPFTKNLGLEELGIELDPRGRIPVNTRFQTKIPNIYAIGDVVAGPMLAHKAEDEGIICVEGMAGGAVHIDYNCVPSVIYTHPEVAWVGKSEEQLKEEGIEYKVGKFPFAANSRAKTNADTDGMVKILGQKSTDRVLGAHILGPGAGEMVNEAALALEYGASCEDIARVCHAHPTLAEAFREANLAASFGKSINF [S491A]

# Variants of: B2
# Settings: with ikbe_human NFKBIE
row,effect of a mutation on the interaction,Variant
1,disrupting interaction strength,MAVRQALGRGLQLGRALLLRFTGKPGRAYGLGRPGPAAGCVRGERPGWAAGPGAEPRRVGLGLPNRLRFFRQSVAGLAARLQRQFVVRAWGCAGPCGRAVFLAFGLGLGLIEEKQAESRRAVSACQEIQAIFTQKSKPGPDPLDTRRLQGFRLEEYLIGQSIGKGCSPAVYEATMPTLPQNLEVTKSTGLLPGRGPGTSAPGEGQERAPGAPAFPLAIKMMWNISAGSSSEAILNTMSQELVPASRVALAGEYGAVTYRKSKRGPKQLAPHPNIIRVLRAFTSSVPLLPGALVDYPDVLPSRLHPEGLGHGRTLFLVMKNYPCTLRQYLCVNTPSPRLAAMMLLQLLEGVDHLVQQGIAHRDLKSDNILVELDPDGCPWLVIADFGCCLADESIGLQLPFSSWYVDRGGNGCLMAPEVSTARPGPRAVIDYSKADAWAVGAIAYEIFGLVNPFYGQGKAHLESRSYQEAQLPALPESVPPDVRQLVRALLQREASKRPSARVAANVLHLSLWGEHILALKNLKLDKMVGWLLQQSAATLLANRLTEKCCVETKMKMLFLANLECETLCQAALLLCSWRAAL [A168P]

# Variants of: B3
# Settings: with sodc_human SOD1, P00441
# Chain of sodc_human SOD1, P00441 (P00441 whole entry): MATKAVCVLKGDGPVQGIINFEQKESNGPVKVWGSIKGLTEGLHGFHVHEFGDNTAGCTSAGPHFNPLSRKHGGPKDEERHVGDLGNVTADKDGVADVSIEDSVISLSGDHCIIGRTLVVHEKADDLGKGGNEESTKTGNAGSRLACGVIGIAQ
row,effect of a mutation on the interaction,Variant
1,with no effect,MGLAGVCALRRSAGYILVGGAGGQSAAAAARRYSEGEWASGGVRSFSRAAAAMAPIKVGDAIPAVEVFEGEPGNKVNLAELFRGKKGVLFGVPGAFTPGCSKTHLPGFVEQAEALKAKGVQVVACLSVNDAFVTGEWGRAHKAEGKVRLLADPTGAFGKETDLLLDDSLVSIFGNRRLKRFSMVVQDGIVKALNVEPDGTGLTCSLAPNIISQL [K83R]
2,with no effect,MGLAGVCALRRSAGYILVGGAGGQSAAAAARRYSEGEWASGGVRSFSRAAAAMAPIKVGDAIPAVEVFEGEPGNKVNLAKLFKGKKGVLFGVPGAFTPGCSKTHLPGFVEQAEALKAKGVQVVACLSVNDAFVTGEWGRAHKAEGKVRLLADPTGAFGKETDLLLDDSLVSIFGNRRLKRFSMVVQDGIVKALNVEPDGTGLTCSLAPNIISQL [E80K]
3,disrupting interaction strength,MGLAGVCALRRSAGYILVGGAGGQSAAAAARRYSEGEWASGGVRSFSRAAAAMAPIKVGDAIPAVEVFEGEPGNKVNLAELFKGRKGVLFGVPGAFTPGCSKTHLPGFVEQAEALKAKGVQVVACLSVNDAFVTGEWGRAHKAEGKVRLLADPTGAFGKETDLLLDDSLVSIFGNRRLKRFSMVVQDGIVKALNVEPDGTGLTCSLAPNIISQL [K85R]

# — IntAct's records for PubMed 29128334
